Measurements reported in publication PMC12416549 (2024).
Residue numbers refer to the chain shown, from its start. Names may count otherwise.

Target: T1, TNFR1 (Homo sapiens, UniProt P19438)
T1 chain: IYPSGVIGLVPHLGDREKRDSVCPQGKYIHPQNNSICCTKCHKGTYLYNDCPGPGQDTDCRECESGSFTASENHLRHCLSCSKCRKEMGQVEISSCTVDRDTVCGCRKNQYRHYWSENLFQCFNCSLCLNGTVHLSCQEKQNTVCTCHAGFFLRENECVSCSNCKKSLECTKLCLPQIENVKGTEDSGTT
Test: yeast display SC50

B1: E72Q (designed binder)
chain: SMEEEVEKAAKEYEKKKKEAIEKHLEKLKAKDKEAAERFLKELEEAAKEYAKDEAKTMSEEEAKRRAKKYKQKVLLSELSEEEQKEIKEAEEKLVRTILKYVEEAAK
- apparent Kd (screen): 2.05 nM

B2: E44V (designed binder)
chain: B1 chain with E44V, Q72E
- apparent Kd (screen): 0.446 nM

B3: L28T (designed binder)
chain: B1 chain with L28T, Q72E
- apparent Kd (screen): 0.79 nM

B4: S59A (designed binder)
chain: B1 chain with S59A, Q72E
- apparent Kd (screen): 0.593 nM

B5: L25G (designed binder)
chain: B1 chain with L25G, Q72E
- apparent Kd (screen): 1.05 nM

B6: K93H (designed binder)
chain: B1 chain with Q72E, K93H
- apparent Kd (screen): 0.869 nM

B7: K17P (designed binder)
chain: B1 chain with K17P, Q72E
- apparent Kd (screen): 22.2 nM

B8: E7I (designed binder)
chain: B1 chain with E7I, Q72E
- apparent Kd (screen): 26.9 nM

B9: E45W (designed binder)
chain: B1 chain with E45W, Q72E
- apparent Kd (screen): 1.27 nM

B10: E3T (designed binder)
chain: B1 chain with E3T, Q72E
- apparent Kd (screen): 1.4 nM

B11: E91F (designed binder)
chain: B1 chain with Q72E, E91F
- apparent Kd (screen): 12.5 nM

B12: E12K (designed binder)
chain: B1 chain with E12K, Q72E
- apparent Kd (screen): 0.446 nM

B13: E26H (designed binder)
chain: B1 chain with E26H, Q72E
- apparent Kd (screen): 0.539 nM

B14: K48C (designed binder)
chain: B1 chain with K48C, Q72E
- apparent Kd (screen): 0.49 nM

B15: R38L (designed binder)
chain: B1 chain with R38L, Q72E
- apparent Kd (screen): 1.16 nM

B16: K31F (designed binder)
chain: B1 chain with K31F, Q72E
- apparent Kd (screen): 0.446 nM

B17: E89D (designed binder)
chain: B1 chain with Q72E, E89D
- apparent Kd (screen): 0.653 nM

B18: A20V (designed binder)
chain: B1 chain with A20V, Q72E
- apparent Kd (screen): 2.73 nM

B19: E44D (designed binder)
chain: B1 chain with E44D, Q72E
- apparent Kd (screen): 0.869 nM

B20: K41S (designed binder)
chain: B1 chain with K41S, Q72E
- apparent Kd (screen): 0.869 nM

B21: I87N (designed binder)
chain: B1 chain with Q72E, I87N
- apparent Kd (screen): 12.5 nM

B22: K11T (designed binder)
chain: B1 chain with K11T, Q72E
- apparent Kd (screen): 0.446 nM

B23: E83C (designed binder)
chain: B1 chain with Q72E, E83C
- apparent Kd (screen): 0.446 nM

B24: K23A (designed binder)
chain: B1 chain with K23A, Q72E
- apparent Kd (screen): 0.446 nM

B25: E7Q (designed binder)
chain: B1 chain with E7Q, Q72E
- apparent Kd (screen): 4.39 nM

B26: A90L (designed binder)
chain: B1 chain with Q72E, A90L
- apparent Kd (screen): 0.446 nM

B27: I21F (designed binder)
chain: B1 chain with I21F, Q72E
- apparent Kd (screen): 0.49 nM

B28: A90V (designed binder)
chain: B1 chain with Q72E, A90V
- apparent Kd (screen): 1.27 nM

B29: A105R (designed binder)
chain: B1 chain with Q72E, A105R
- apparent Kd (screen): 2.73 nM

B30: K71S (designed binder)
chain: B1 chain with K71S, Q72E
- apparent Kd (screen): 0.869 nM

B31: D32F (designed binder)
chain: B1 chain with D32F, Q72E
- apparent Kd (screen): 6.43 nM

B32: K71G (designed binder)
chain: B1 chain with K71G, Q72E
- apparent Kd (screen): 5.31 nM

B33: V102W (designed binder)
chain: B1 chain with Q72E, V102W
- apparent Kd (screen): 1.4 nM

B34: S80H (designed binder)
chain: B1 chain with Q72E, S80H
- apparent Kd (screen): 0.956 nM

B35: K17I (designed binder)
chain: B1 chain with K17I, Q72E
- apparent Kd (screen): 0.956 nM

B36: K11I (designed binder)
chain: B1 chain with K11I, Q72E
- apparent Kd (screen): 0.539 nM

B37: E14V (designed binder)
chain: B1 chain with E14V, Q72E
- apparent Kd (screen): 11.4 nM

B38: E86T (designed binder)
chain: B1 chain with Q72E, E86T
- apparent Kd (screen): 0.956 nM

B39: E3Q (designed binder)
chain: B1 chain with E3Q, Q72E
- apparent Kd (screen): 2.25 nM

B40: D53L (designed binder)
chain: B1 chain with D53L, Q72E
- apparent Kd (screen): 13.8 nM

B41: F39Q (designed binder)
chain: B1 chain with F39Q, Q72E
- apparent Kd (screen): 5.84 nM

B42: E12Q (designed binder)
chain: B1 chain with E12Q, Q72E
- apparent Kd (screen): 0.956 nM

B43: L79N (designed binder)
chain: B1 chain with Q72E, L79N
- apparent Kd (screen): 12.5 nM
